We go through one substance from patent US20260151470A1.

This experiment has as its target native PfCSP on PfCSP-expressing Plasmodium berghei (PbPf) sporozoites (Plasmodium falciparum) (UniProt P19597). As to the kind of experiment: cell-based or functional assay.
UniProt P19597, sequence (P19597 19-374 limits assumed): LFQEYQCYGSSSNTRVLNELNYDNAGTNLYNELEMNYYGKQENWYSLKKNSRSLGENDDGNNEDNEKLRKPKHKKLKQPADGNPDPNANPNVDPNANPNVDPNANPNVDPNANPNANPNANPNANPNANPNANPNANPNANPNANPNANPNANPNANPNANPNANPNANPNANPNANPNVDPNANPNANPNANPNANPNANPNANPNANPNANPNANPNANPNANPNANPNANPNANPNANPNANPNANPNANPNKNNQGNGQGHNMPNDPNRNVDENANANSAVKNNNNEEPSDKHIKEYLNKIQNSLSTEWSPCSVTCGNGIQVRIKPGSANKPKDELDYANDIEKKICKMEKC

Regarding anti-PfCSP 2A10 monoclonal antibody, the circumsporozoite precipitation reaction (CSPR), mean FSC-W turned out to be 1220.
